Experiments:
[1] = molecular target: Hemagglutinin on intact virus A/Port Chalmers/1/73 (H3N2) (Influenza A virus) (UniProt P03438+P03438); assay: cell_activity
[2] = molecular target: Influenza hemagglutinin fragment HA91-261 (globular region) (Influenza A virus (A/Port …, UniProt Q1PUD9 SEQ:1-171)); assay: ELISA; conditions: tags: N-terminal 6xHis (pQE30, E. coli, Ni-NTA purified)
Sequence of Influenza hemagglutinin fragment HA91-261 (globular region) (Influenza A virus (Q1PUD9 107-277): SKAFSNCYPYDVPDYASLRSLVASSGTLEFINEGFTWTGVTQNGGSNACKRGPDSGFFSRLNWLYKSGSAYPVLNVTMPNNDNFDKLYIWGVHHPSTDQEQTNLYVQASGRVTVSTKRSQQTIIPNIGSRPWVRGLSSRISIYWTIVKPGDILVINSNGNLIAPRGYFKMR

Molecule | binding result [2] | other results
AATTAACCCTCACTAAAGGGCTGAGTCTCAAAACCGCAATACACTGGTTGTATGGTCGAATAAGTTAA [A22] |  | activity [1]: 70%
AATTAACCCTCACTAAAGGG (ssDNA) [T3 primer negative control] |  | binding result ([2]; label: biotin): no binding
A21 (ssDNA) DNA: AATTAACCCTCACTAAAGGGCGCTTATTTGTTCAGGTTGGTCTTCCTATTATGGTCGAATAAGTTAA | binds | 
A22 (ssDNA) DNA: AATTAACCCTCACTAAAGGGCTGAGTCTCAAAACCGCAATACACTGGTTGTATGGTCGAATAAGTTAA | binds | 

Reference: patent US20070059806, “Nucleic acid molecules, polypeptides, antibodies and compositions containing same useful for treating and detecting influenza virus infection” (Yeda Research and Development Co., Ltd. at the Weizmann …, published 2007)
